These results are taken from patent publication US20240301062A1 (BEIGENE SWITZERLAND, published 2024).

The target in experiment [1] is T1, Cyno CDεγ (recombinant cynomolgus CD3εγ) (cyno, UniProt Q95LI5 22-117; Q95LI7 23-113).
T1 construct: Printed as CDεγ; read as CD3εγ
T1 sequence (looked up) 1: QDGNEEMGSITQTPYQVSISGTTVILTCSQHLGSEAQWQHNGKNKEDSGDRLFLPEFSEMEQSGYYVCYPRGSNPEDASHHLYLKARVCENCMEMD
T1 sequence (looked up) 2: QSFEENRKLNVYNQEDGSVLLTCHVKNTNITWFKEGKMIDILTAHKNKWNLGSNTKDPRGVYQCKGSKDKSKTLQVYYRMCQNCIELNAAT
The experiment can be described thus: SPR, recombinant protein. Here is the method: (§1) The binding kinetics of CLDN6×CD3 BsAb BG143P were measured using SPR. SPR was used to measure the on-rate constant (kₐ) and off-rate constant (kd) of the antibodies to recombinant proteins of CDεγ and then determined the affinity constant (KD).
(In general: SPR reads the build-up and loss of mass on a sensor chip optically.)

In experiment [2] the target is T2, Human CDεγ (recombinant human CD3εγ) (human, UniProt P07766 23-126; P09693 23-116).
T2 construct: Printed as CDεγ; read as CD3εγ
T2 sequence (P07766 23-126, chain 1 of 2): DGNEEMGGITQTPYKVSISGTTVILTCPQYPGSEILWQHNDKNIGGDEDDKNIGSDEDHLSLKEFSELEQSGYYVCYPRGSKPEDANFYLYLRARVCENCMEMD
T2 sequence (P09693 23-116, chain 2 of 2): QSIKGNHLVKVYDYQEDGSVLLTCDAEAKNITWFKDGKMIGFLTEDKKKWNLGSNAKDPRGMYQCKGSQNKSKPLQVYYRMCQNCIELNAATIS
Kind of experiment: SPR, recombinant protein. How it is done: as §1

For experiment [3], the target named is T3, human native CD3 on live cells (HuT78, Jurkat) (human, UniProt P07766 23-207; P09693 23-182; P04234 22-171).
T3 construct: whole, on cells; also called human CD3
T3 sequence (P07766 23-207, chain 1 of 3): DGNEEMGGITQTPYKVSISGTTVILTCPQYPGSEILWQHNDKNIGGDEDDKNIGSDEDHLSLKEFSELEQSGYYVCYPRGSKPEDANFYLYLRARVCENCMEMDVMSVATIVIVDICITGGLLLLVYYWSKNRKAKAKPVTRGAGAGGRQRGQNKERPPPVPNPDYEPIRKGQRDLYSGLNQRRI
T3 sequence (P09693 23-182, chain 2 of 3): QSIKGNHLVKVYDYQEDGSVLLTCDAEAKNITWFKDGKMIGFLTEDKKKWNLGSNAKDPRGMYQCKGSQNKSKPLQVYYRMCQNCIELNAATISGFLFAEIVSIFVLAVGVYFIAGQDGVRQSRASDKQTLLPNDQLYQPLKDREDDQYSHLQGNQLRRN
T3 sequence (P04234 22-171, chain 3 of 3): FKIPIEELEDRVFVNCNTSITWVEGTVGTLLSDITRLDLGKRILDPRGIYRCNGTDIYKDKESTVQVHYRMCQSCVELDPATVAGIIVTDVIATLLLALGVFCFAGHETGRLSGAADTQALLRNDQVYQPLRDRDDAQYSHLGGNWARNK
The experiment can be described thus: FACS, CD3-expressing Jurkat cells. (In general: A flow cytometer gives signals particle by particle.)

Experiment [4] addresses T4, human claudin 9 (CLDN9) (human, UniProt O95484 1-217).
T4 construct: also called human CLDN9
T4 sequence: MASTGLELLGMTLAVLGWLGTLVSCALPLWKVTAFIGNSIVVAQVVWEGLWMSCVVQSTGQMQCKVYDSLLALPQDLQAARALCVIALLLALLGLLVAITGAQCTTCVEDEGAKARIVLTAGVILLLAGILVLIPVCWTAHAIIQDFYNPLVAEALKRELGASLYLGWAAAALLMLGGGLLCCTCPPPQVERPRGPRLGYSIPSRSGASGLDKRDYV
The experiment can be described thus: flow cytometry on NCI-H1299 cells stably expressing human CLDN9, anti-human Fc gamma secondary, MFI (AF647) [right panel]. How it is done:
Expressing vectors of human CLDN6 and CLDN9 were established by inserting synthesized cDNA coding corresponding sequences into mammalian expression vector. NCI-H1299 stable cells expressing human CLDN6 and CLDN9 were generated by transfection of corresponding plasmids. Cells were suspended at a concentration of 1×10⁶ cells in FACS buffer (2% FBS, 1×PBS), and the cell suspension was dispensed into a U-bottom 96-well plate ([…]). Antibody was added thereto at final top concentration of 100 nM and 2× dilute for 11 dilutions, then mixed with cells and incubated at 4° C. for 1 hour. After centrifugation, the reaction solution was removed, and the cells were washed twice with 200 μL/well FACS buffer. Then, APC-anti human Fcγ was diluted 500-fold with FACS buffer and added as secondary antibodies to the cells. The cells were incubated at 4° C. for 30 mins, then washed twice as above, and suspended in 100 μL FACS buffer. The cell suspension was subjected to flow cytometry.

For experiment [5], the target named is T5, human claudin 6 (CLDN6) (human, UniProt P56747 1-220).
T5 construct: also called human CLDN6; hCLDN6
T5 sequence: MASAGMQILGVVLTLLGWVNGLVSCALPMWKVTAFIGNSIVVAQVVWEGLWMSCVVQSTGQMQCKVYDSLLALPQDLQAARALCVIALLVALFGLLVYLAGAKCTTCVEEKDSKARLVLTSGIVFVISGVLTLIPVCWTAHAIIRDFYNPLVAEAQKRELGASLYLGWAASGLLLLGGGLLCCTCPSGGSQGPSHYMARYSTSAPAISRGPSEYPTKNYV
Kind of experiment: FACS, CLDN6-expressing PA-1 cells.

Experiment [6] concerns the target T4, human claudin 9 (CLDN9). The experiment can be described thus: flow cytometry, CHOK1/human CLDN9-GFP cells.
In experiment [7] the target is T5, human claudin 6 (CLDN6). Kind of experiment: flow cytometry, PA-1 cells (endogenous CLDN6).
In a further experiment the target is T6, mouse CLDN6 (mouse, UniProt Q9Z262 1-219).
T6 construct: whole, on cells
T6 sequence (looked up): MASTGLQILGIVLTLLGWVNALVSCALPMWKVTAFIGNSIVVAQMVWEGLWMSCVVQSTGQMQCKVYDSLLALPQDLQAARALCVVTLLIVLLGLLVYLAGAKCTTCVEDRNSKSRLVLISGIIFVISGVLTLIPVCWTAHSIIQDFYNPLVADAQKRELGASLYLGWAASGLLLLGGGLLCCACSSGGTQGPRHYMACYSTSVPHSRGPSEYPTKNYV
The experiment can be described thus: flow cytometry, CHOK1/mouse CLDN6-GFP cells.

Experiment [8] addresses T5, human claudin 6 (CLDN6). The experiment can be described thus: flow cytometry, CHOK1/human CLDN6-GFP cells.
The next experiment has as its target T7, cyno CLDN6 (cyno).
T7 construct: whole, on cells; also called cynomolgus CLDN6
The experiment can be described thus: flow cytometry, CHOK1/Cyno CLDN6-GFP cells.

B1: CLDN6xCD3 BsAb BG143P (bispecific antibody, human IgG1, kappa)
chain: EVQLVESGGGLVQPGGSLRLSCAASGFTFSTYAMNWVRQAPGKGLEWVGRIRSKYNNYATYYADSVKGRFTISRDDAKNSLYLQMNSLRAEDTAVYYCVRHGNFGSSYVSWFAYWGQGTLVTVSSGGGGSGGGGSGGGGSEIVVTQSPATLSVSPGERATLSCRSSTGAVTTSNYANWVQQKPGQAPRGLIGGTNKRAPGIPARFSGSLSGDEATLTISSLQSEDFAVYYCALWYSNLWVFGGGTKVEIKEPKSSDKTHTCPPCPAPPAAGPSVFLFPPKPKDTLMISRTPEVTCVVVDVSHEDPEVKFNWYVDGVEVHNAKTKPREEQYNSTYRVVSVLTVLHQDWLNGKEYKCKVSNKALAAPIEKTISKAKGQPREPQVYTLPPSRDELTKNQVSLWCLVKGFYPSDIAVEWESNGQPENNYKTTPPVLDSDGSFFLYSKLTVDKSRWQQGNVFSCSVMHEALHNHYTQKSLSLSPGK
heavy: EVQLQESGGGLVQPGGSLRLSCAASGYSFSDYHINWVRQAPGKGLEWVGYIYPGSGHTKYNEKFKGRFTISRDTSSNTAYLQMNSLRAEDTAVYYCARSGIYHYVSSYYFDHWGQGTLVTVSSASTKGPSVFPLAPSSKSTSGGTAALGCLVKDYFPEPVTVSWNSGALTSGVHTFPAVLQSSGLYSLSSVVTVPSSSLGTQTYICNVNHKPSNTKVDKKVEPKSCDKTHTCPPCPAPPAAGPSVFLFPPKPKDTLMISRTPEVTCVVVDVSHEDPEVKFNWYVDGVEVHNAKTKPREEQYNSTYRVVSVLTVLHQDWLNGKEYKCKVSNKALAAPIEKTISKAKGQPREPQVYTLPPSRDELTKNQVSLSCAVKGFYPSDIAVEWESNGQPENNYKTTPPVLDSDGSFFLVSKLTVDKSRWQQGNVFSCSVMHEALHNHYTQKSLSLSPGK
light: DIQMTQSPSSLSASVGDRVTITCKASQDAGSAVAWYQQKPGKAPKLLIYWASTRHTGVPSRFSGSGSGTDFTLTISSLQPEDFATYYCQQYSSYTFGGGTKLEIKRTVAAPSVFIFPPSDEQLKSGTASVVCLLNNFYPREAKVQWKVDNALQSGNSQESVTEQDSKDSTYSLSSTLTLSKADYEKHKVYACEVTHQGLSSPVTKSFNRGEC
notes: module ratio 1:1, Fc null huIgG1, knob into hole; also called CLDN6×CD3 BsAb; CLDN6×CD3 antibody
B1: the dissociation constant (Kd) was determined as 4.55 nM in [1] and 8.31 nM in experiment [2]. Besides, the koff in [1] was found to be 0.00599 s⁻¹; in experiment [2], 0.0181 s⁻¹. In addition, the values for the kon in experiment [1] and in [2] were 1.32e+06 M⁻¹ s⁻¹ and 2.17e+06 M⁻¹ s⁻¹, respectively. The results for the EC50 (in experiment [3]; with human claudin 6 (CLDN6) [5]) were 6.98 nM and 81.3 nM, respectively. Besides, in the experiment with human claudin 9 (CLDN9) [4], the binding result is recorded as “no binding (tested: 100 nM)”.

B2: BG87P (mouse anti-CLDN6 antibody, hybridoma clone) (antibody, V domains shown)
VH: QIQLQQSGPELVKPGASVKISCKASGYSFTDYHINWVKQRPGQGLEWIGWIYPGSGYTKYNEKFKVKATLTVDTSSSTAYMHLTSLTSEDSAVYFCARSGIYHYVSSYYFDHWGQGTTLTVSS
VL: DIVMTQSHTFMSTSVGDRVSITCKASQDVGTAVAWYQQKPGQSPKLLIYWASTRHTGVPDRFTGSGSGTDFTLTISNVQSEDLADYFCQQYSSYTFGGGTKLEIK
notes: Mouse antibody purified from hybridoma supernatant on protein A; also called clone BG87P
For B2, the binding result with human claudin 9 (CLDN9) [6] is given as “no binding”. In addition, the EC50 with human claudin 6 (CLDN6) [7] was 3.38 nM; with mouse CLDN6, 94.7 nM; with human claudin 6 (CLDN6) [8] it was 3.41 nM; with cyno CLDN6, 6.08 nM.

What is called Kd is the equilibrium constant for the complex coming apart. For orientation: koff means the rate constant with which the complex falls apart. As usually defined, the kon is the second-order rate constant of association. The term EC50 denotes the concentration that produces a half-maximal response. A lower EC50 goes with greater potency.
